Assay results taken from paper PMC9884259 (The Journal of Membrane Biology, 2022).
Changes are numbered by the printed parent chain.

B1: Streptolysin O (SLO), wildtype, residues L78-K571, His-tagged (natural protein)
chain: LAPKEMPLESAEKEEKKSEDKKKSEEDHTEEINDKIYSLNYNELEVLAKNGETIENFVPKEGVKKADKFIVIERKKKNINTTPVDISIIDSVTDRTYPAALQLANKGFTENKPDAVVTKRNPQKIHIDLPGMGDKATVEVNDPTYANVSTAIDNLVNQWHDNYSGGNTLPARTQYTESMVYSKSQIEAALNVNSKILDGTLGIDFKSISKGEKKVMIAAYKQIFYTVSANLPNNPADVFDKSVTFKELQRKGVSNEAPPLFVSNVAYGRTVFVKLETSSKSNDVEAAFSAALKGTDVKTNGKYSDILENSSFTAVVLGGDAAEHNKVVTKDFDVIRNVIKDNATFSRKNPAYPISYTSVFLKNNKIAGVNNRTEYVETTSTEYTSGKINLSHQGAYVAQYEILWDEINYDDKGKEVITKRRWDNNWYSKTSPFSTVIPLGANSRNIRIMARECTGLAWEWWRKVIDERDVKLSKEINVNISGSTLSPYGSITYK
B2: SLO (C/A)-SS mutant ([change], [change], [change]), residues L78-K571, His-tagged (natural protein)
chain: B1 chain with G51C, S184C, C453A

What was measured:
high-speed AFM = biological target: the molecule itself; assay: high-speed AFM
[1] = biological target: B1; assay: high-speed AFM; conditions: both partners purified

Binder	binding result (high-speed AFM)	binding result [1]
B1	binds	–
B2	binds	binds
